Data on four proteins can be found in PMC3572731 (Journal of molecular biology, 2012).

The series “crystal structure” deals with the molecule itself. Nature of the series: crystal structure.
The series “SEC” concerns the molecule itself. The experiment in a line: SEC. On the technique in general: In gel filtration, larger molecules generally elute earlier.

B1: Sf6 terminase small subunit gp1 R48A mutant (natural protein)
chain: MATEPKAGRPSDYMPEVADDICSLLSSGESLLKVCKRPGMPDKSTVFAWLAKHEDFRDKYAKATEARADSIFEEIFEIADNAIPDAAEVAKARLRVDTRKWALARMNPRKYGDKVTNELVGKDGGAIQIETSPMSTLFGK
Turning to B1, the binding result in the series “crystal structure” is reported as “binds”.

B2: Sf6 terminase small subunit gp1 E73A mutant (natural protein, Shigella phage Sf6)
chain: MATEPKAGRPSDYMPEVADDICSLLSSGESLLKVCKRPGMPDKSTVFRWLAKHEDFRDKYAKATEARADSIFAEIFEIADNAIPDAAEVAKARLRVDTRKWALARMNPRKYGDKVTNELVGKDGGAIQIETSPMSTLFGK
Turning to B2, the stoichiometry N (as a rule, a count of units in the complex or per binding partner) in “SEC” amounted to 8.

B3: Sf6 terminase small subunit gp1 D19R mutant (natural protein, Shigella phage Sf6, UniProt Q716H4 1-140, looked up)
chain: MATEPKAGRPSDYMPEVARDICSLLSSGESLLKVCKRPGMPDKSTVFRWLAKHEDFRDKYAKATEARADSIFEEIFEIADNAIPDAAEVAKARLRVDTRKWALARMNPRKYGDKVTNELVGKDGGAIQIETSPMSTLFGK
B3: the binding result in “crystal structure” is recorded as “binds”.

B4: Sf6 terminase small subunit gp1 K59E mutant (natural protein)
chain: MATEPKAGRPSDYMPEVADDICSLLSSGESLLKVCKRPGMPDKSTVFRWLAKHEDFRDEYAKATEARADSIFEEIFEIADNAIPDAAEVAKARLRVDTRKWALARMNPRKYGDKVTNELVGKDGGAIQIETSPMSTLFGK
As to B4, in the series “crystal structure”, the binding result is listed as “binds”.
